B1: Gamma-crystallin D, residues 90 to 170; numbered along this chain, P07320 (parent)
chain: IRLYEREDYRGQMIEFTEDCSCLQDRFRFNEIHSLNVLEGSWVLYELSNYRGRQYLLMPGDYRRYQDWGATNARVGSLRRV

Variants of: B1
Assay: abundance fitness (aPCA) (normalised: wild type 0, dead -1); higher = more abundant; growth selection in yeast, the domain comes from the species named
Details: Homo sapiens

Abundance fitness, by site and new letter:
R79: D -0.552 | N -0.316 | A 0.096 | Y -0.153 | F -0.214 | W -0.36 | Q 0.049 | K -0.048 | C -0.355 | I -0.175
D67: L -0.084 | I -0.155 | M 0.047 | C -0.148 | A -0.101 | R -0.208 | E 0.049 | V -0.043 | Q -0.08 | F -0.062 | S -0.005 | P -0.19 | H -0.034 | Y -0.125 | W -0.064
G60: R -0.04 | T -0.122 | Q 0.001 | Y -0.176 | W -0.133 | S 0.064
V81: L 0.081 | A -0.093 | I -0.054
Y65: V -0.047 | D 0.044 | Q -0.028 | I 0.053 | G 0.159 | T -0.076 | F -0.174 | W 0.005 | A -0.093 | H 0.099 | S 0.041 | K -0.113 | M 0.089 | N 0.096 | L 0.093 | P 0.051 | C -0.144 | E 0.192
S77: R -1.01 | F -0.879 | C -0.28 | D -1.03 | A -0.168 | V -1.13 | L -0.819 | T -0.921 | E -0.868 | K -0.654 | G -0.367 | W -1.01 | Q -1.05 | P -1.04
A70: V 0.044 | S -0.025 | G -0.047 | F 0.048 | D 0.18 | W 0.032 | M 0.109 | N 0.136 | L 0.045 | H 0.045 | C 0.074 | Y -0.033 | Q -0.032 | I 0.024 | P 0.047 | R 0.095 | E 0.165
A73: V 0.066

From the Human Domainome abundance scans (Beltran et al. 2025)
